Data on one molecule can be found in patent US20130288364, “ENGINEERED KINETOCHORES AND USES THEREOF” (Whitehead Institute for Biomedical Research, published 2013).

In series [1] the target is CENP-T-ΔN/CENP-W complex (Homo sapiens, UniProt Q96BT3;Q5EE01 Q96BT3:288-561,Q5EE01:1-88). Nature of the series: EMSA; retains DNA binding activity. The following applies: tags: 6xHis-CENP-T, untagged CENP-W; label: biotin. How it is done: (§1) In vitro DNA binding was assessed by Electro Mobility Shift Assay (EMSA). 500 ng of the indicated protein was incubated for 10 minutes at room temperature in binding buffer (10 mM Tris pH 7.9, 150 mM KCl, 1 mM EDTA, 4 mM DTT. 50 ng of a 20 bp biotinylated double stranded DNA probe […] corresponding to bp 21-40 of the alpha satellite DNA sequence was then added, and incubated for a further 20 minutes. Samples were then run on a 4% non denaturing arylamide gel, semi-dry transferred to nitrocellulose membrane, and blots processed using the Chemiluminescent nucleic acid detection system (Thermo) according to manufacturers instructions. Biotinylated DNA probe with detected with HRP-coupled streptavidin (Thermo).
In general terms: Mobility shift assays separate free from complexed probe on a gel.

Series [2] deals with CENP-T/CENP-W complex (Homo sapiens, UniProt Q96BT3;Q5EE01 Q96BT3:1-561,Q5EE01:1-88). In words: EMSA; 10 mM Tris pH 7.9, 150 mM KCl, 1 mM EDTA, 4 mM DTT, room temperature; 500 ng protein, 50 ng probe. The following applies: tags: 6xHis-CENP-T (full length), untagged CENP-W, co-expressed from pST39 in bacteria; Gene ID 80152 / 387103; label: biotin. The procedure: as §1
Chain of CENP-T/CENP-W complex (Q96BT3 whole entry, chain 1 of 2): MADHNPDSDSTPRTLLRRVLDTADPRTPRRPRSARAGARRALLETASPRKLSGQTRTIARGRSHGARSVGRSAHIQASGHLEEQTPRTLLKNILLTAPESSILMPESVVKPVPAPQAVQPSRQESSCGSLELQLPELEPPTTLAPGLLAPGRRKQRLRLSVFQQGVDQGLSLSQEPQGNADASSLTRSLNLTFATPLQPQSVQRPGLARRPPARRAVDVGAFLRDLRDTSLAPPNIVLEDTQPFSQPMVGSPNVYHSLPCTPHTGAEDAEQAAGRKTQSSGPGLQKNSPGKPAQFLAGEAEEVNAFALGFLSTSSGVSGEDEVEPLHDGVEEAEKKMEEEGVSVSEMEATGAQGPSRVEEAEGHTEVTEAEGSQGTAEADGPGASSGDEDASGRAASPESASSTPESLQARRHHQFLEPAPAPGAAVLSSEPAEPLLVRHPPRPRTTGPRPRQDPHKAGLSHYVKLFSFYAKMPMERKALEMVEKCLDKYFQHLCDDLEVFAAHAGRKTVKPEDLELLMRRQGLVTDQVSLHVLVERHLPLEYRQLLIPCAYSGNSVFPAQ
Chain of CENP-T/CENP-W complex (Q5EE01 whole entry, chain 2 of 2): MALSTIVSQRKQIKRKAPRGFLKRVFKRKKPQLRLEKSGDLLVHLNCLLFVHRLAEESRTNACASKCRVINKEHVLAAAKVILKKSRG

Chain of CENP-T-ΔN/CENP-W complex (Q96BT3 288-561, stated change not applied, chain 1 of 2): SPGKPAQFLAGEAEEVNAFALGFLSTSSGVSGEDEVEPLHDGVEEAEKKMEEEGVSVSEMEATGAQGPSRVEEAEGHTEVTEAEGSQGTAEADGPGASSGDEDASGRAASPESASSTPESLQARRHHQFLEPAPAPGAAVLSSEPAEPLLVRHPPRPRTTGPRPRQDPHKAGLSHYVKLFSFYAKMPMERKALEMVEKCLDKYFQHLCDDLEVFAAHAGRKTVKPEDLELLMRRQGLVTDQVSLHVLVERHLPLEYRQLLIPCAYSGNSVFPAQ
Chain of CENP-T-ΔN/CENP-W complex (Q5EE01 whole entry, stated change not applied, chain 2 of 2): as the sequence (Q5EE01 whole entry, chain 2 of 2) above

B1: alpha-satellite 20 bp probe (bp 21-40) (dsDNA)
DNA 1: CCTTTGAGGCCTTCGTTGGA
DNA 2: TCCAACGAAGGCCTCAAAGG
For B1, the binding result in series [1] and in series [2] was “binds” throughout.
